Non-standard residues stand in square brackets, D forms with d. No end group written: not given here. pS = N[C@@H](COP(=O)(O)O)C(=O)O

The experiment deals with specific IκB E3 ubiquitin ligase activity of HeLa extract. The experiment can be described thus: cell-based or functional assay.
Regarding CD[pS]GLD[pS]M [pp7, doubly phosphorylated IκBα peptide (minimal size peptide tested)], the “IC50 of inhibition of pIκBα ubiquitination (in vitro ubiquitination assay in HeLa extract)” value turned out to be 10 µM.

On to CKKERLLDDRHD[pS]GLDSMKDEE [ppS32, singly phosphorylated IκBα peptide], for which the “IC50 of inhibition of pIκBα ubiquitination (in vitro ubiquitination assay in HeLa extract)” value is 400 µM.

With CDDRHD[pS]GLD[pS]M [pp11, doubly phosphorylated IκBα peptide], the “IC50 of inhibition of pIκBα ubiquitination (in vitro ubiquitination assay in HeLa extract)” value amounted to 5 µM.

Consider CDDRHD[pS]GLD[pS]MKDEE [pp15, doubly phosphorylated IκBα peptide], for which the “IC50 of inhibition of pIκBα ubiquitination (in vitro ubiquitination assay in HeLa extract)” value stood at 5 µM.

With CKKERLLDDRHDSGLD[pS]MKDEE [ppS36, singly phosphorylated IκBα peptide], the “IC50 of inhibition of pIκBα ubiquitination (in vitro ubiquitination assay in HeLa extract)” value is 400 µM.

(Values after patent US20030166587A1 (SIGNAL PHARMACEUTICALS, published 2003).)
